Measurements as given in IntAct's records for PubMed 29187380.

Key:
dock7_human DOCK7 = dock7_human DOCK7 (UniProt Q96N67)
vac14_human VAC14 = vac14_human VAC14 (UniProt Q08AM6)
Sequence of UniProt Q08AM6 (Q08AM6 whole entry): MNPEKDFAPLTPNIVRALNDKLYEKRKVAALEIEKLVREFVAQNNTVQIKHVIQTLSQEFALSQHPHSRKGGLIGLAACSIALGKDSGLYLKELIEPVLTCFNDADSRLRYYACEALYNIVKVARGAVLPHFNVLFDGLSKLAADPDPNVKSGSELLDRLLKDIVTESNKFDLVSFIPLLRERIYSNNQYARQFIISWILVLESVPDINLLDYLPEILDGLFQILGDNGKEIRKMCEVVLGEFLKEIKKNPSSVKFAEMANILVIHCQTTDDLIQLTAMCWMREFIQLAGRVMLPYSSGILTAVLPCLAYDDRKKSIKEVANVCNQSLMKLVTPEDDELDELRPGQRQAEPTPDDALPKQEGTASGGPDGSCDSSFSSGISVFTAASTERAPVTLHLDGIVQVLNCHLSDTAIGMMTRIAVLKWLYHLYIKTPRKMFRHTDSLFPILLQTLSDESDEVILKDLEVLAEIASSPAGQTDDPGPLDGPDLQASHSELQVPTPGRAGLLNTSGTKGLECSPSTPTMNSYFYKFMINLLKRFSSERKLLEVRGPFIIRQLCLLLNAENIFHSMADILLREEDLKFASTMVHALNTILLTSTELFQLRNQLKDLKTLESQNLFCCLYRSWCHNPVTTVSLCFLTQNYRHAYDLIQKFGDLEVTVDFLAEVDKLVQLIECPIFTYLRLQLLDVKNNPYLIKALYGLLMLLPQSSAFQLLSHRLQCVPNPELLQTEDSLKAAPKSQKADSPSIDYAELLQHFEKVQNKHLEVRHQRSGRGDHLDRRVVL

Sequence of UniProt Q96N67 (Q96N67 whole entry): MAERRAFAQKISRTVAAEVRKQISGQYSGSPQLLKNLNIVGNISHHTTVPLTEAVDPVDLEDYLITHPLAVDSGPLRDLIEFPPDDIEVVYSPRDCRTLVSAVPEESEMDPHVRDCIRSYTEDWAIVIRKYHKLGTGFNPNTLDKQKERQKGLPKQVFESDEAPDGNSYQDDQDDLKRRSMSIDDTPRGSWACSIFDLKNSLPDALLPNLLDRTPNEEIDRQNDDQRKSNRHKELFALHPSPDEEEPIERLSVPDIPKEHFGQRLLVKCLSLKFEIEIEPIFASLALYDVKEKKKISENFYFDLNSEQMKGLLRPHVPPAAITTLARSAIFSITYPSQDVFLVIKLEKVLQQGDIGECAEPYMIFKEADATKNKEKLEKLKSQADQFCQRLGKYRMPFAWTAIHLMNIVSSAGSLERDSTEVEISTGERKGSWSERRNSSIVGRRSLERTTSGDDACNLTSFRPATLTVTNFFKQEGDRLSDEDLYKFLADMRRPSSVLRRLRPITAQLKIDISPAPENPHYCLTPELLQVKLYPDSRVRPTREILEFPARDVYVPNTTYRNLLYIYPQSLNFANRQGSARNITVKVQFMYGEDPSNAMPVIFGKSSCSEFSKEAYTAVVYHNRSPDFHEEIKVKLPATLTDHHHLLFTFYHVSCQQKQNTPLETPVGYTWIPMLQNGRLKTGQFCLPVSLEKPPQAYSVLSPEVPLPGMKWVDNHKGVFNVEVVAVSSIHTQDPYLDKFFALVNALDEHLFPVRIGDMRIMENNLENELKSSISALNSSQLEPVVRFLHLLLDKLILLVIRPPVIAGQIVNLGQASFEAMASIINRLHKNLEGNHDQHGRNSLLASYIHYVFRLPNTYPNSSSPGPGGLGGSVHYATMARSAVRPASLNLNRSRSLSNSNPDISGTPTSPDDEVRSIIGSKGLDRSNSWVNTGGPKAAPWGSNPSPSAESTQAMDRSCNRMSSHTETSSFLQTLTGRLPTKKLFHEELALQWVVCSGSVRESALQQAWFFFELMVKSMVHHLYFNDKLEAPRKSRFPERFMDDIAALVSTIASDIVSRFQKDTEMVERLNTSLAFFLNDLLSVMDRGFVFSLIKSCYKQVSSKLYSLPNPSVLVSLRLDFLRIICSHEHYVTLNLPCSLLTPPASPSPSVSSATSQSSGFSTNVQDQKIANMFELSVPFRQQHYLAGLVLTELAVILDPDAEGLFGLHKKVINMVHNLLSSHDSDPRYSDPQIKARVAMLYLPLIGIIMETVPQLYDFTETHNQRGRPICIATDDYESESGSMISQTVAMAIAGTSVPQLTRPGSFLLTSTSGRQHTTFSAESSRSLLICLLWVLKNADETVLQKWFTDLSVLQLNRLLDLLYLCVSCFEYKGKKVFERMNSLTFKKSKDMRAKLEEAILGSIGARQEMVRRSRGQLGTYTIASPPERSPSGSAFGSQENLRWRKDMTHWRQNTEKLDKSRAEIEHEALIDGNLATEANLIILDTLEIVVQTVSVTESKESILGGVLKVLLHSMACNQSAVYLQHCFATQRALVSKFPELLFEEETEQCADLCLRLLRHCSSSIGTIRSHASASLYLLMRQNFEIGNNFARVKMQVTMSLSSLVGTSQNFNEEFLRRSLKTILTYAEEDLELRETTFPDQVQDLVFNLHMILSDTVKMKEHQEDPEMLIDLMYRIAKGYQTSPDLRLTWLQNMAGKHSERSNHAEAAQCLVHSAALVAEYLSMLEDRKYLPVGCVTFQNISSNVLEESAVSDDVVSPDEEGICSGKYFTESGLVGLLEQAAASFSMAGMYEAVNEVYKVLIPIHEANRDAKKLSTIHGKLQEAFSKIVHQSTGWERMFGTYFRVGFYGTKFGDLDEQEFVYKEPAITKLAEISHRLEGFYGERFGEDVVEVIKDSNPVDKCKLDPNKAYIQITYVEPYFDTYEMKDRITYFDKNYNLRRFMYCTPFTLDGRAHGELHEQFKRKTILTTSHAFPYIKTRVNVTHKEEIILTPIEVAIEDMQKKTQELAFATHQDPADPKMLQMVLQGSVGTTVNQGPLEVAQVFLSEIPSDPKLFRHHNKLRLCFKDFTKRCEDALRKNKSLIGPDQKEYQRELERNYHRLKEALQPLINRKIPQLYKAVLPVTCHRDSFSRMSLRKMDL

Row | Substance | effect of a mutation on the interaction (dock7_human DOCK7) | effect of a mutation on the interaction (vac14_human VAC14)
1 | Neurobeachin-like protein 2 (Homo sapiens), Q6ZNJ1 G2290W;E2294G | decreasing interaction strength | decreasing interaction strength
2 | Neurobeachin-like protein 2 (Homo sapiens), Q6ZNJ1 M2080K | with no effect | decreasing interaction strength
3 | Neurobeachin-like protein 2 (Homo sapiens), Q6ZNJ1 P2100L | disrupting interaction strength | decreasing interaction strength
4 | Neurobeachin-like protein 2 (Homo sapiens), Q6ZNJ1 R2172H | disrupting interaction strength | with no effect
5 | Neurobeachin-like protein 2 (Homo sapiens), Q6ZNJ1 S2269L | with no effect | increasing interaction strength
